The target of experiment [1] is Flag-MLKL T357D/S358E phosphorylation mimic (human) (UniProt Q8NB16). The experiment is described as follows: immunoblot of oligomers in cytosol and membrane fractions; HEK-293T cells transfected with Flag-MLKL constructs, with or without RIP3, Bcl-2 or Bcl-2 G145A; Triton X-114 detergent phase separation; oligomers seen by immunoblot (gel conditions not told). Background: Immunoblotting shows a protein as a band on a membrane.

The target in a further experiment is Bcl-2 (UniProt P10415). The experiment is described as follows: anti-Flag co-IP, Bcl-2 blot. Conditions: reference: wild-type MLKL with RIP3; sites T357,S358.

Sequence of Bcl-2 (transfected, HEK-293T) (P10415 whole entry): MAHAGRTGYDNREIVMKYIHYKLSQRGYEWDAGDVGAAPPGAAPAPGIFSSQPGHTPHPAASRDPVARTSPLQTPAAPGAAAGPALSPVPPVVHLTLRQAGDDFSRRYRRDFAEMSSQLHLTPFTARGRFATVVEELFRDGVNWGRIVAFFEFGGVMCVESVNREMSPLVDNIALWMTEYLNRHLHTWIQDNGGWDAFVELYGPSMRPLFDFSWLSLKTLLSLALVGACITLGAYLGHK
Sequence of Flag-MLKL T357D/S358E phosphorylation mimic (human) (Q8NB16 whole entry T357D/S358E): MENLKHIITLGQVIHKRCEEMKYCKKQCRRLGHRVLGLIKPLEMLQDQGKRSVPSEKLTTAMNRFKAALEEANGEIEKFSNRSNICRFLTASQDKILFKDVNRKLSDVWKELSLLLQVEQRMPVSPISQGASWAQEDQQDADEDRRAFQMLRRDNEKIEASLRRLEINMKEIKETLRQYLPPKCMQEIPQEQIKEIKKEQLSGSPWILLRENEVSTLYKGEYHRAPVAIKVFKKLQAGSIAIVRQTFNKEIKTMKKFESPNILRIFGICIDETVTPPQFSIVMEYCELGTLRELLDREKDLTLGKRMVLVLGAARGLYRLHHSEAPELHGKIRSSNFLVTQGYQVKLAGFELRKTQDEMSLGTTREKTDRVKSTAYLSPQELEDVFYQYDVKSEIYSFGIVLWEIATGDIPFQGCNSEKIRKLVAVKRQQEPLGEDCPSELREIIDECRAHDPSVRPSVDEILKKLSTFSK

In turn, “Bcl-2 (transfected, HEK-293T) (from UniProt P10415 1-239)” showed a percent decrease of MLKL oligomerization in experiment [1] of 30%.

Consider “MLKL (from UniProt Q8NB16) T357A/S358A with RIP3”, for which, in the experiment with Bcl-2, the “binding against the reference” value is “weaker”.

For the origin of these results see paper PMC6901440.
